The text below walks through data of article PMC1802081.

Targets include BMP-2 A86P; BMP-2 L100K; BMP-2 N102D; BMP-2 S85R/A86P; BMP-2 S85R.
Assay in all cases: SPR; BIACORE 2000; biotinylated ligand on a streptavidin-modified CM5 chip (about 200 RU); receptor ectodomain as analyte at 1, 2, 3, 5, 10, 20 and 50 uM; HBS500 (10 mM HEPES pH 7.4, 500 mM NaCl, 3.4 mM EDTA, 0.005% P20); apparent KD from the dose dependence of equilibrium binding
Assay [1] deals with BMP-2 variant L100K/N102D.

In the case of “ActR-II receptor ectodomain (from UniProt P27037 20-135)”, the rel. KD (against wildtype BMP-2 from E. coli with the same receptor) worked out at 1.5 fold with BMP-2 A86P; 0.84 fold in the assay with BMP-2 L100K; 3.6 fold in the assay with BMP-2 N102D; 1.3 fold in the assay with BMP-2 S85R/A86P; 0.85 fold in the assay with BMP-2 S85R; 0.29 fold in assay [1].
